According to US20260125448A1 (published 2026):

Target: T1, MAGE-A4 (peptide named MA4-286) peptide on HLA-A*02:01 (human)
T1 peptide: KVLEHVVRV
Experiment: multimer staining

B1: MA4-286 G6 TCR (TCR, V domains shown)
Valpha: AQTVTQSQPEMSVQEAETVTLSCTYDTSENNYYLFWYKQPPSRQMILVIRQEAYKQQNATENRFSVNFQKAAKSFSLKISDSQLGDTAMYFCASHSGAGSYQLTFGKGTKLSVIP
Vbeta: DTGVSQDPRHKITKRGQNVTFRCDPISEHNRLYWYRQTLGQGPEFLTYFQNEAQLEKSRLLSDRFSAERPKGSFSTLEIQRTEQGDSAMYLCASSPTGGFYEQYFGPGTRLTVT
binding result: recognises
